In US5336667A, “Method for inhibiting the ahesion of platelet with alboaggregins: platelet agonists which bind to platelet membrane glycoprotein IB” (Temple University of the Commonwealth System of Higher …, priority 1992, dated 1994):

Experiments:
[1] = target: human platelet membrane glycoprotein Ib (human) (UniProt P07359); experiment: Scatchard analysis of 125I-echicetin binding to fixed platelets
[2] = target: human platelet membrane glycoprotein Ib (human) (UniProt P07359); experiment: Scatchard analysis of 125I-echicetin binding to fixed platelets, three experiments
[3] = target: human platelet membrane glycoprotein Ib (human) (UniProt P07359); experiment: radioligand competition on platelets; competitor 125I-echicetin
[4] = target: human platelet membrane glycoprotein Ib (human) (UniProt P07359); experiment: radioligand competition on fixed platelets; competitor 125I-bovine vWF
[5] = target: human platelet membrane glycoprotein Ib (human) (UniProt P07359)
[6] = target: T1, alboaggregin B (AL-B), Trimeresurus albolabris venom (Trimeresurus albolabris, UniProt P81115+P81116); experiment: Effect of sugars on binding of AL-B to platelets (lectin test); conditions: sugar at concentrations up to 5 mg/ml
T1 sequence (P81115 24-156): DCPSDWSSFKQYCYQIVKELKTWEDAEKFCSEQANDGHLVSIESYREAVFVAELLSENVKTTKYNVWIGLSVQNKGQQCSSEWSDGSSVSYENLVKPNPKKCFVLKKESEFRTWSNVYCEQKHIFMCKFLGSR
T1 sequence (P81116 24-146): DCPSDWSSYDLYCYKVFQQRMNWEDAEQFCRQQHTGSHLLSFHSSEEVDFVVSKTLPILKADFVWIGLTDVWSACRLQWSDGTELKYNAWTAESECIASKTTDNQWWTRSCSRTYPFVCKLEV
Method: Several galactose-specific lectins that agglutinate platelets have been reported in snake venoms. Their presence can be detected by inhibition of lectin-induced agglutination by galactose or other sugars. In order to determine whether the alboaggregins function as lectins, we examined the effects of eight different sugars (lactose, galactose, galactosamine, mannosamine, glucosamine, N-acetyl glucosamine, α-methyl glucoside and α-methyl mannoside) at concentrations up to 5 mg/ml.
Binding of ^125 I-bovine vWF and 125I-alboaggregins to labeled platelets was carried out according to Kirby, J. Lab. Clin. Med. 100, 963-976 (1982). Platelets were diluted and incubated at 37° C. for at least 10 min. prior to performing binding studies. Radiolabeled proteins were diluted in Tris-saline buffer containing 1 mg/ml of BSA and preincubated with buffer or a sample to be tested for inhibitory activity. The platelet suspension (1.9×10^8 platelets/ml) was added to the radiolabeled protein (26 ng/ml) and incubated at 37° C. for different periods of time. Unlabeled AL-B (1.8 μg/ml or 8.6 μg/ml) was added to duplicate suspensions after 5 min. of incubation with ^125 I-AL-B. Platelets were separated from free ligand by centrifugation for 4 min. at 12000 g. Supernatant and pellets were counted in an […] gamma counter to determine the amount of free and platelet-bound radioactivity, respectively.

[7] = target: human platelet membrane glycoprotein Ib (human) (UniProt P07359); experiment: unlabeled AL-C competing on platelets; competitor 125I-AL-A
[8] = target: human platelet membrane glycoprotein Ib (human) (UniProt P07359); experiment: unlabeled AL-C competing on platelets; competitor 125I-AL-C
[9] = target: human platelet membrane glycoprotein Ib (human) (UniProt P07359); experiment: unlabeled AL-C competing on platelets; competitor 125I-AL-B
[10] = target: human platelet membrane glycoprotein Ib (human) (UniProt P07359); experiment: unlabeled AL-C competing on platelets; competitor 125I-bovine vWF
[11] = target: human platelet membrane glycoprotein Ib (human) (UniProt P07359); experiment: direct binding of 125I-AL-C to platelets
[12] = tested on: alboaggregin A (AL-A), Trimeresurus albolabris venom, SEQ ID NOS: 1, 2, 3 and 4; experiment: Platelet agglutination induced by AL-A in the presence of inhibitors; format: cell-based
Method: (§1) Agglutination of platelet-rich plasma, washed platelets and fixed platelets by AL-B was performed according to the method described by Kirby, J Lab Clin. Med. 100, 963-976 (1982). Platelet agglutination was assayed at 37° C. with constant stirring at 1200 RPM in an aggregometer and the extent of light transmission change was measured after two minutes. AL-B was added to suspensions of (A) fixed washed platelets or (B) washed platelets at final concentrations of (A) 0.2, 0.4, 0.6, 0.9 and 1.7 μg/ml and (B) 0.12, 0.24 and 0.48 μg/ml, respectively. The platelet concentration was approximately 3×10^8 platelets/ml in each suspension. AL-B agglutinated both fixed platelets and washed platelets in a dose-dependent manner. Once platelets were maximally agglutinated by AL-B, addition of bovine vWF gave no further response.
All three alboaggregins agglutinated platelet rich plasma and fixed platelets directly. To induce the same amount of platelet agglutination by bovine vWF, twice as much vWF was required to obtain the same change in light transmission. […] Platelet agglutination activity of each of the alboaggregins was similar in terms of their EC50 values.
(§2) Platelet agglutination induced by AL-A or AL-B was not inhibited by EDTA (10 raM) , soybean trypsin inhibitor (0.5 mg/ml) N-ethylmaleimide, (10 raM) or PGE1 (0.35 μM).

[13] = target: T1, alboaggregin B (AL-B), Trimeresurus albolabris venom; experiment: Platelet agglutination induced by AL-B in the presence of inhibitors; format: cell-based
Method: as §1, §2

[14] = target: T2, human platelet membrane glycoprotein Ib (human, UniProt P07359); experiment: unlabeled bovine vWF competing on platelets; competitor 125I-AL-C
[15] = target: T2, human platelet membrane glycoprotein Ib; experiment: unlabeled bovine vWF competing on platelets; competitor 125I-bovine vWF
[16] = target: T2, human platelet membrane glycoprotein Ib; experiment: radioligand competition on fixed platelets; competitor 125I-bovine vWF (0.57 µg/ml)
[17] = target: T2, human platelet membrane glycoprotein Ib; experiment: unlabeled bovine vWF competing on platelets; competitor 125I-AL-B
[18] = target: T2, human platelet membrane glycoprotein Ib; experiment: unlabeled bovine vWF competing on platelets; competitor 125I-AL-A
[19] = target: T2, human platelet membrane glycoprotein Ib; experiment: radioligand competition on platelets; competitor 125I-echicetin

echicetin (ligand)
binding sites per platelet (binding sites per platelet) [1]: 45000
Kd [2]: 30 nM
IC50 [3]: > 0.5 µg/mL
IC50 [4]: 0.2 µg/mL
concentration for 50% inhibition of AL-B-induced agglutination of fixed platelets [5]: 1.05 µg/mL
concentration for 50% inhibition of botrocetin/human vWF-induced agglutination of fixed platelets [5]: 1.1 µg/mL
concentration for 50% inhibition of bovine vWF-induced agglutination of fixed platelets [5]: 0.4 µg/mL
concentration for 50% inhibition of bovine vWF-induced agglutination of washed platelets [5]: 0.15 µg/mL

N[C@H]1C(O)O[C@H](CO)[C@@H](O)[C@@H]1O (stereo partly drawn) [glucosamine]
effect on the binding of AL-B to platelets [6]: None of these sugars showed any effect

CO[C@H]1O[C@H](CO)[C@@H](O)[C@H](O)[C@H]1O [α-methyl glucoside]
effect on the binding of AL-B to platelets [6]: None of these sugars showed any effect

alboaggregin C (ligand)
IC50 [7]: 1.7 µg/mL
IC50 [8]: 0.3 µg/mL
IC50 [9]: 1 µg/mL
IC50 [10]: 0.2 µg/mL
percent of total radioactivity added that bound [11]: 78%

N[C@H]1C(O)O[C@H](CO)[C@H](O)[C@@H]1O (stereo partly drawn) [galactosamine]
effect on the binding of AL-B to platelets [6]: None of these sugars showed any effect

CC(=O)N[C@H]1C(O)O[C@H](CO)[C@@H](O)[C@@H]1O (stereo partly drawn) [N-acetyl glucosamine]
effect on the binding of AL-B to platelets [6]: None of these sugars showed any effect

CCCCC[C@H](O)/C=C/[C@H]1[C@H](O)CC(=O)[C@@H]1CCCCCCC(=O)O [PGE1]
inhibition of platelet agglutination induced by AL-A ([12]; PGE1 0.35 μM): not inhibited
inhibition of platelet agglutination induced by AL-B ([13]; PGE1 0.35 μM): not inhibited

OC[C@H]1O[C@@H](O[C@H]2[C@H](O)[C@@H](O)C(O)O[C@@H]2CO)[C@H](O)[C@@H](O)[C@H]1O (stereo partly drawn) [lactose]
effect on the binding of AL-B to platelets [6]: None of these sugars showed any effect

N[C@@H]1C(O)O[C@H](CO)[C@@H](O)[C@@H]1O (stereo partly drawn) [mannosamine]
effect on the binding of AL-B to platelets [6]: None of these sugars showed any effect

CO[C@H]1O[C@H](CO)[C@@H](O)[C@H](O)[C@@H]1O [α-methyl mannoside]
effect on the binding of AL-B to platelets [6]: None of these sugars showed any effect

CCN1C(=O)C=CC1=O [N-ethylmaleimide]
inhibition of platelet agglutination induced by AL-A ([12]; N-ethylmaleimide 10 raM): not inhibited
inhibition of platelet agglutination induced by AL-B ([13]; N-ethylmaleimide 10 raM): not inhibited

galactose
effect on the binding of AL-B to platelets [6]: None of these sugars showed any effect

O=C(O)CN(CCN(CC(=O)O)CC(=O)O)CC(=O)O [EDTA]
inhibition of platelet agglutination induced by AL-A ([12]; EDTA 10 raM): not inhibited
inhibition of platelet agglutination induced by AL-B ([13]; EDTA 10 raM): not inhibited

B1: bovine von Willebrand factor (ligand)
chain: SLSCRPPMVKVVCPADNPRAEGLECTKTCQNYDLECMSTGCVSGCLPAPGMVRHENRCVALERCPCFHQGREYAPGDRVKVDCNSCVCQDRKWNCTDHVCDASCSALGLAHYFTFDGLKYLFPGECQYVLVQDHCGSNPGTFRVLVGNEGCSVPSLKCRKRITILVEGGEIELFD
IC50 [14]: > 10 µg/mL
IC50 [15]: 2.1 µg/mL
IC50 [16]: ~10 µg/mL
IC50 [17]: > 10 µg/mL
IC50 [18]: > 10 µg/mL
IC50 [19]: > 20 µg/mL
